Reference: publication PMC7596504, “Molecular mechanism of the MORC4 ATPase activation” (Nature Communications, 2020)
Changes are numbered by the printed parent chain. Names and notes keep the numbering of the source.

What was measured:
HEK293T cells [1] = test: Cell cycle analysis by flow cytometry; assay type: cell-based; settings: for effect on S phase (words): 48-h overexpression, vs control cells; for percent of cells in S phase: 48-h overexpression of mCherry-tagged protein, EdU/PI, average of three independent experiments, control 34.5%
Protocol: For DNA content analysis, 10^6 cells previously transfected with mCherry MORC4 constructs and labeled with 25 µM Ethynyl deoxyUridine (EdU) for 1 h in 100 µL were washed with PBS (NaCl 137 mM, KCl 2.7 mM, Na2HPO4 10 mM, KH2PO4 1.8 mM) and fixed in ice cold 70% ethanol overnight. Fixed cells were washed and resuspended in PBS containing 0.05% NP40 and incubated at room temperature for 30 min. Cells were again washed with PBS. Cells were resuspended in Alexa Fluor 647 click staining solution (100 mM Tris pH 7.6, 4 mM CuSO4, 3 µM AF647 azide, 100 mM Sodium Ascorbate) for 1 h. Following staining, cells were washed with PBS and then stained for total DNA content using 10 μg/mL propidium iodide (PI) and 0.2 mg/ml RNase A for 60 min before analysis on a FACScan instrument. Data were analyzed using FlowJo (Version 10) with cells gated to remove doublets. EdU vs PI plots were gated in quadrants to identify G1, early S, late S and G2/M cells. S phase fractions were summed for total S phase population. […]

NCP147 = test: FRET, LexA titration into Cy3-Cy5 labeled NCP147; assay type: binding; settings: mean of n = 3
Protocol: Histone octamers unlabeled or labeled with Cy5 at H2AK119 were prepared as previously described. NCPs were reconstituted by combining octamer with 1.25× excess DNA and performing slow salt dialysis. Free DNA was then separated from fully reconstituted NCPs by sucrose gradient purification. NCPs for fluorescence polarization assays were reconstituted from unlabeled octamer and 207 bp DNA containing the 601 Widom sequence flanked with a 30 bp linker on either side and internally labeled with Fluorescein 27 bp in from the 5′ end. Cy3-Cy5 labeled NCPs for FRET assays were reconstituted with Cy5 labeled octamer plus either 147 bp 601 Widom DNA containing a LexA transcription factor binding site at bases 8–27[34], or 252 bp DNA containing the 601 Widom sequence with a 75 bp linker at the 3′ end, a 30 bp linker at the 5’ end, and a Gal4 transcription factor binding site at bases 8–26 in the 601 Widom sequence. The 147 bp LexA-binding DNA was labeled with Cy3 on the 5′ end, and the 252 bp Gal4-binding DNA was internally labeled with Cy3 34 bp in from the 5′ end.
LexA was expressed in E. coli, separated from genomic DNA and the proteome by polyethyleneimine precipitation, and salted out with ammonium sulfate. LexA was resuspended in buffer A (20 mM potassium phosphate pH 7, 0.1 mM EDTA, 10% glycerol, 1 mM DTT) + 200 mM NaCl and purified by a linear gradient to A + 800 mM NaCl over either a cellulose phosphate or HiTrap Heparin HP column. […]
Cy3-Cy5 NCP FRET efficiency measurements were carried out on a Horiba Scientific Fluoromax 4. […] LexA titrations were carried out in 20 mM Tris pH 7.5, 75 mM NaCl, 10% glycerol, 0.00625% Tween 20 buffer with 5 nM 147 bp Cy3-Cy5 NCPs mixed in 20 µL reaction volumes and allowed to incubate for 5 mins at 4 °C before FRET of the sample was measured. […] Gal4 (1–147) titrations were carried out in 10 mM Tris pH 8, 130 mM NaCl, 10% glycerol, 0.0075% Tween 20 buffer with 1 nM 252 bp Cy3-Cy5 nucleosomes mixed in 60 µL reaction volumes and allowed to incubate for 10 mins at room temperature before FRET of the sample was measured. […]

MORC4 CW domain = molecular target: T1, MORC4 CW domain (Homo sapiens, UniProt Q8TE76); test: 1H,15N HSQC NMR titration of MORC4 CW; assay type: binding; settings: Supplementary Fig. 12
T1 construct: The CW domain (aa 417–475) of MORC4 was cloned into a pGEX 6p-1 vector; GST (N, cleaved yes); made in house; host or cells: E. coli Rosetta2 (DE3) pLysS or BL21 (DE3) RIL
T1 sequence (Q8TE76 417-475): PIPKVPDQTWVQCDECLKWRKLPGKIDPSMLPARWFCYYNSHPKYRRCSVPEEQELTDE
Protocol: NMR experiments were carried out at 298 K on a Varian INOVA 600 and 900 MHz spectrometers. His-tagged MORC4 ATPase (1–411) was expressed and purified as described above and used without cleavage of the tag. NMR samples contained 0.1 mM uniformly ^15N-labeled WT or mutated CW in 20 mM Tris-HCl (pH 7) buffer supplemented with 100 mM NaCl, 5 mM DTT, and 10% D2O. Binding was characterized by monitoring CSPs in the proteins induced by H3 peptides or the ATPase domain. For the CWKRR mutant, NMR experiments were performed in 20 mM Tris-HCl (pH 6.8) buffer supplemented with 150 mM NaCl, 2 mM DTT, and 10% D2O.

HEK293T cells [2] = test: MORC4 localization and nuclear bodies (confocal microscopy); assay type: cell-based; settings: live cells, confocal microscopy, 48 h post transfection
Protocol: WT mCherry-MORC4, mCherry-MORC4 E56A, mCherry-MORC4 W435A, mCherry-MORC4 E56A/W435A, mCherry-MORC4 K460A/R462A/R463A, or mCherry control plasmid were transfected into 2 million 293T-HEK cells seeded on 25 mm circular coverslips (Carolina Biological Supply Item#: 633057) in 10-cm-diameter tissue culture dish by Lipofectamine 3000 (Life Technology, L3000-075) following the manufacturer’s instructions. Two days after transfection, cells were stained with Hoechst […] for 30 min and imaged live on a ZeissAxiovert 200 M inverted microscope fitted with a ×40 oil objective. Images were acquired with Slidebook 6 software and exported for analysis in Image J.
mCherry foci sizes were calculated using ImageJ image processing program (version 1.51) using the Analyze Particle tool. mCherry particle sizes were collected for MORC4 WT and MORC4 W435A transfected cells. Data were plotted with R (version 3.4.1) using ggplot2 (version 3.2.1). Cell size and mCherry foci count per cell were calculated using CellProfile cell image analysis software (version 3.1.5) to identify nuclei and mCherry foci, relate mCherry foci to nuclei containing them and measure the size of nuclei and number mCherry foci contained. Data were plotted with R (version 3.4.1) using ggplot2 (version 3.2.1).

B1: MORC4 K460A/R462A/R463A: mCherry-tagged MORC4 triple mutant with disrupted DNA-binding activity of CW (protein, UniProt Q8TE76 1-937, looked up, variant K460A R462A R463A)
MORC family CW-type zinc …: MLLYRGAPAGPGAPGCGLARPGGGPQAFGIRLSTMSPRYLQSNSSSHTRPFSAIAELLDNAVDPDVSARTVFIDVEEVKNKSCLTFTDDGCGMTPHKLHRMLSFGFTDKVIKKSQCPIGVFGNGFKSGSMRLGKDALVFTKNGGTLTVGLLSQTYLECVQAQAVIVPIVPFNQQNKKMIITEDSLPSLEAILNYSIFNRENDLLAQFDAIPGKKGTRVLIWNIRRNKNGKSELDFDTDQYDILVSDFDTEEKMTGGVTSELPETEYSLRAFCGILYMKPRMKIFLRQKKVTTQMIAKSLANVEYDTYKPTFTNKQVRITFGFSCKNSNQFGIMMYHNNRLIKSFEKVGCQVKPTRGEGVGVIGVIECNFLKPAYNKQDFEYTKEYRLTINALAQKLNAYWKEKTSQDNFETSTVARPIPKVPDQTWVQCDECLKWRKLPGKIDPSMLPARWFCYYNSHPAYAACSVPEEQELTDEDLCLSKAKKQEQTVEEKKKMPMENENHQVFSNPPKILTVQEMAGLNNKTIGYEGIHSPSVLPSGGEESRSPSLQLKPLDSSVLQFSSKYKWILGEEPVEKRRRLQNEMTTPSLDYSMPAPYRRVEAPVAYPEGENSHDKSSSERSTPPYLFPEYPEASKNTGQNREVSILYPGAKDQRQGSLLPEELEDQMPRLVAEESNRGSTTINKEEVNKGPFVAVVGVAKGVRDSGAPIQLIPFNREELAERRKAVESWNPVPYSVASAAIPAAAIGEKARGYEESEGHNTPKLKNQRELEELKRTTEKLERVLAERNLFQQKVEELEQERNHWQSEFKKVQHELVIYSTQEAEGLYWSKKHMGYRQAEFQILKAELERTKEEKQELKEKLKETETHLEMLQKAQVSYRTPEGDDLERALAKLTRLRIHVSYLLTSVLPHLELREIGYDSEQVDGILYTVLEANHILD
modifications: mCherry tag
In the case of B1, the “effect on S phase (words)” value (HEK293T cells [1]) is reported as “increased percent of cells in S phase” and the “effect on S phase (words)” value (HEK293T cells [1]; listed as K460A/R462A/R463A) is reported as “no significant effect was observed”.

B2: LexA: transcription factor LexA, expressed in E. coli (protein, UniProt P0A7C2 1-202, looked up)
LexA repressor: MKALTARQQEVFDLIRDHISQTGMPPTRAEIAQRLGFRSPNAAEEHLKALARKGVIEIVSGASRGIRLLQEEEEGLPLVGRVAAGEPLLAQQHIEGHYQVDPSLFKPNADFLLRVSGMSMKDIGIMDGDLLAVHKTQDVRNGQVVVARIDDEVTVKRLKKQGNKVELLPENSEFKPIVVDLRQQSFTIEGLAVGVIRNGDWL
In the case of B2, the S1/2 (NCP147; +1 μM MORC4 ATPaseCW) is reported as 2.4 ± 0.4 µM and the S1/2 (NCP147; without MORC4, 5 nM NCP147, pH 7.5, 75 mM NaCl, 4 °C, 5 min) is reported as 0.9 ± 0.2 µM.

B3: MORC4 W435A: mCherry-tagged full-length MORC4 W435A mutant, in which the structure of the CW domain is disrupted (protein, UniProt Q8TE76 1-937, looked up, variant W435A)
chain: B1 MORC family CW-type zinc … with W435A, A460K, A462R, A463R
modifications: full-length mCherry tag
With B3 the “structure of the CW domain” value (MORC4 CW domain) was “the structure of the CW domain is disrupted”, the “subcellular localization” value (HEK293T cells [2]) was “dispersed throughout the cell” and the “percent of cells in S phase” value (HEK293T cells [1]) was 36.5%.

B4: E56A/W435A: dual mutant of mCherry-tagged MORC4 (protein, UniProt Q8TE76 1-937, looked up, variant E56A W435A)
chain: B1 MORC family CW-type zinc … with E56A, W435A, A460K, A462R, A463R
modifications: full-length mCherry tag
notes: dual mutant of mCherry-tagged MORC4
With B4 the “percent of cells in S phase” value (HEK293T cells [1]) was 35.8%.
